In PMC9367177:

Biological target: CC12.1 (human)
Experiment: SPR

Chain of CC12.1 (human) (heavy, as listed by the source, chain 1 of 2): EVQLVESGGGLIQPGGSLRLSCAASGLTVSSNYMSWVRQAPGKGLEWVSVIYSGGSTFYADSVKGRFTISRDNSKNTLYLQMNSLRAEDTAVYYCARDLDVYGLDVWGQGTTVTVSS
Chain of CC12.1 (human) (light, as listed by the source, chain 2 of 2): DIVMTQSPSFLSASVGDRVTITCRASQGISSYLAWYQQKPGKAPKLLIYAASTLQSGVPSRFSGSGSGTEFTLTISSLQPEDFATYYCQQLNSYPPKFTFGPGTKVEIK

“SARS-CoV-2 RBD Alpha (B.1.1.7) (from UniProt P0DTC2) (domain or fragment)” was tested, and the Kd was 14.4 nM.
